The values below come from patent publication US20260056186A1 (JIANGSU HENGRUI PHARMACEUTICALS, published 2026).

As usually defined, the EC50 (read off the curve) is the concentration giving half of the maximal effect. The low end stands for an effect from little substance, the high end for a need for much substance. A word on the EC50: it is the concentration giving half of the maximal effect. Low values mean higher potency in that assay, high ones lower potency in that assay. Broadly, the IC50 is the midpoint of a concentration-inhibition curve.

Read-outs that look alike come from different tables or passages of the source.

Assay [1] deals with T1, BAFF (PeproTech, Cat: 310-13) (UniProt Q9Y275 134-285). The experiment in a line: ELISA, plate coated with BAFF 1 ug/mL, HRP anti-human Fc, OD450. As to the method:
(§1) BAFF (PeproTech, Cat: 310-13) was diluted to 1 μg/mL with PBS, and a 96-well plate was coated with the dilution overnight at 4° C. The plate was washed with PBST and blocked with Blocking Buffer (PBST containing 1% BSA) at 37° C. for 1 h. The plate was tapped. The test antibodies were diluted with Blocking Buffer. Incubation was performed at 37° C. for 1.5 h. The plate was washed with PBST. An HRP-mouse anti-human Fc antibody (GenScript, Cat: A01854-200) was diluted with Blocking Buffer. Incubation was performed at 37° C. for 40 min. The plate was washed with PBST. 100 μL of TMB substrate solution (Biopanda, Cat: TMB-S-003) was added, and color development was performed at 37° C. for 3 min. 100 μL of ELISA stop solution (Solarbio, Cat: C1058) was added. OD450 was measured.
For orientation: An ELISA detects its analyte on a solid surface through an enzyme-linked reagent.

Assay [2] has as its target T1, BAFF (PeproTech, Cat: 310-13). The experiment in a line: ELISA, BAFF coated; reference telitacicept. As to the method:
as §1, with “The capabilities of TACI-BCMA fusion proteins (B575701, B575702, B575703, and B575704) to bind to BAFF and APRIL were assessed by ELISA as follows: BAFF (PeproTech,” for “BAFF (PeproTech,”, “Cat: 310-13) or ARPIL (Acro Biosystems, Cat: APL-H52D1) was diluted” for “Cat: 310-13) was diluted”, “96-well plate (Costar, Cat: 3590) was coated” for “96-well plate was coated”
(§2) The capability of B575702 to bind to BAFF was consistent with that of B575704, and their EC₅₀ values decreased to ¼ of that of telitacicept. The capability of B575701 to bind to BAFF was consistent with that of B575703, and their EC₅₀ values decreased to ½ of that of telitacicept.

For assay [3] the target is unchanged. Nature of the assay: ELISA, BAFF coated at 1 ug/mL, anti-human Fc-HRP, OD450. As to the method: as §1, with “The capabilities of TACI-BCMA fusion proteins (B575701, B575702, B575703, and B575704) to bind to BAFF and APRIL were assessed by ELISA as follows: BAFF (PeproTech,” for “BAFF (PeproTech,”, “Cat: 310-13) or ARPIL (Acro Biosystems, Cat: APL-H52D1) was diluted” for “Cat: 310-13) was diluted”, “96-well plate (Costar, Cat: 3590) was coated” for “96-well plate was coated”
as §2

Assay [4] addresses T2, APRIL (Acro Biosystems, Cat: APL-H52D1) (UniProt O75888 115-250, limits assumed).
T2 construct: also called ARPIL
T2 sequence (looked up): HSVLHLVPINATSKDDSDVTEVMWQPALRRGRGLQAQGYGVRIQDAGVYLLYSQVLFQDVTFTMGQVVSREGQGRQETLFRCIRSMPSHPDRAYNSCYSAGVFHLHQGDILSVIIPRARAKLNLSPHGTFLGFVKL
The experiment in a line: ELISA, APRIL coated at 1 ug/mL, anti-human Fc-HRP, OD450. As to the method: as §1, with “The capabilities of TACI-BCMA fusion proteins (B575701, B575702, B575703, and B575704) to bind to BAFF and APRIL were assessed by ELISA as follows: BAFF (PeproTech,” for “BAFF (PeproTech,”, “Cat: 310-13) or ARPIL (Acro Biosystems, Cat: APL-H52D1) was diluted” for “Cat: 310-13) was diluted”, “96-well plate (Costar, Cat: 3590) was coated” for “96-well plate was coated”
The capabilities of the 4 fusion proteins to bind to APRIL were all stronger than that of telitacicept, and their EC₅₀ values decreased to ¼ to ⅓ of that of telitacicept.

The target in assay [5] is T3, BAFF (Sino biological, 10056-HNCH) (UniProt Q9Y275 134-285, biotinylated in the blocking ELISA (site not stated)).
T3 construct: also called BLyS
Nature of the assay: ELISA, BAFF coated at 1 ug/mL, anti-human IgG-HRP. As to the method: (§3) In addition, the BAFF binding activity of the constructed TACI-Fc fusion proteins was assessed, and the TACI-Fc fusion proteins' functional activity of blocking the binding of BAFF to BAFF-R was assessed (see Example 1 for the experimental method).
(§4) The BAFF binding activity of the TACI-Fc fusion proteins was assessed as follows: BAFF (Sino biological, 10056-HNCH) protein was diluted with a pH 7.4 PBS (BasalMedia, B320) buffer to 1 μg/mL, and the resulting dilution was added to a 96-well microplate (Corning, 3590) at 100 μL/well. The plate was incubated overnight at 4° C. After the liquid was discarded, 5% skim milk (BD, 232100), diluted with PBS, was added at 300 μL/well for blocking, and the plate was incubated at 37° C. for 2 h. After the blocking, the blocking solution was discarded, and the plate was washed 3 times with a PBST buffer (pH 7.4 PBS containing 0.10% tween-20). Serially diluted test antibody or fusion protein solutions were added at 100 μL/well, and the plate was incubated at 37° C. for 1 h. […] The plate was incubated at 37° C. for 1 h. After the plate was washed 3 times with PBST, the chromogenic substrate TMB (KPL, 5120-0077) was added at 100 μL/well. The plate was incubated at room temperature for 10-15 min, and 1 M H₂SO₄ was added at 50 μL/well to stop the reaction. The absorbance at 450 nm was measured using a microplate reader. Curves for the binding of the antibodies to the antigen were fitted using software, and EC₅₀ values were calculated.

Assay [6] deals with T3, BAFF (Sino biological, 10056-HNCH). The experiment in a line: ELISA, BAFF coated at 1 ug/mL, anti-human IgG-HRP. As to the method:
as §4
The BAFF binding activity of the constructed TACI-Fc fusion proteins was assessed (see Example 2 for the experimental method), and the results are shown in Table 3: […]
This is another data set of the same source.

The target is the same in assay [7]. The experiment in a line: competition ELISA: fusion protein pre-mixed with biotinylated BAFF, added to coated BAFF-R. As to the method:
The above TACI-Fc fusion proteins' function of blocking the binding of BAFF to BAFF-R was further assessed as follows: The receptor protein was diluted with a pH 7.4 PBS (BasalMedia, B320) buffer to 2 μg/mL, and the resulting dilution was added to a 96-well microplate (Corning, 3590) at 100 μL/well. The plate was incubated overnight at 4° C. After the liquid was discarded, 1% Casein blocking solution (Thermo, 37528) was added at 200 μL/well for blocking, and the plate was incubated at 37° C. for 2 h. After the blocking, the blocking solution was discarded, and the plate was washed 3 times with a PBST buffer (pH 7.4 PBS containing 0.1% tween-20) and set aside for later use. A biotinylated ligand protein at a fixed concentration was mixed with a serially diluted antibody or fusion protein, and the mixture was pre-incubated at 37° C. for 30 min and then added to the blocked microplate. The plate was incubated at 37° C. for 1.5 h. After the incubation, the plate was washed 3 times with PBST, and streptavidin-HRP (Invitrogen, 434323, diluted in a 1:4000 ratio) was added at 100 μL/well. The plate was incubated at 37° C. for 1 h. The supernatant was removed. […] The absorbance at 450 nm was measured using a microplate reader. Curves for the inhibition of the binding of the ligand to the receptor were fitted using software, and IC₅₀ values were calculated. […]

Assay [8] shares this target. The description is as above. As to the method: The above TACI-Fc fusion proteins' function of blocking the binding of BAFF to BAFF-R was further assessed as follows: The receptor protein was diluted with a pH 7.4 PBS (BasalMedia, B320) buffer to 2 μg/mL, and the resulting dilution was added to a 96-well microplate (Corning, 3590) at 100 μL/well. The plate was incubated overnight at 4° C. After the liquid was discarded, 1% Casein blocking solution (Thermo, 37528) was added at 200 μL/well for blocking, and the plate was incubated at 37° C. for 2 h. After the blocking, the blocking solution was discarded, and the plate was washed 3 times with a PBST buffer (pH 7.4 PBS containing 0.1% tween-20) and set aside for later use. A biotinylated ligand protein at a fixed concentration was mixed with a serially diluted antibody or fusion protein, and the mixture was pre-incubated at 37° C. for 30 min and then added to the blocked microplate. The plate was incubated at 37° C. for 1.5 h. After the incubation, the plate was washed 3 times with PBST, and streptavidin-HRP (Invitrogen, 434323, diluted in a 1:4000 ratio) was added at 100 μL/well. The plate was incubated at 37° C. for 1 h. The supernatant was removed. After the plate was washed 3 times with PBST, the chromogenic substrate TMB (KPL, 5120-0077) was added at 100 μL/well. The plate was incubated at room temperature for 10-15 min, and 1 M H₂SO₄ was added at 50 μL/well to stop the reaction. The absorbance at 450 nm was measured using a microplate reader. Curves for the inhibition of the binding of the ligand to the receptor were fitted using software, and IC₅₀ values were calculated. The sources of the ligand and the receptor protein used are as follows: BAFF (Sino biological, 10056-HNCH) and BAFF-R (Sino biological, 16079-H02H).
as §3
This is another data set of the same source.

T1 sequence (Q9Y275 134-285 limits assumed): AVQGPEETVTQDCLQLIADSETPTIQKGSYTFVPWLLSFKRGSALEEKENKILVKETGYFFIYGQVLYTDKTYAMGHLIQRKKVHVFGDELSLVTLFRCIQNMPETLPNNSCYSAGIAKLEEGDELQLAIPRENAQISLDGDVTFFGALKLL
T3 sequence (Q9Y275 134-285 limits assumed): as above

B1: Atacicept (Fc fusion)
chain: AMRSCPEEQYWDPLLGTCMSCKTICNHQSQRTCAAFCRSLSCRKEQGKFYDHLLRDCISCASICGQHPKQCAYFCENKLRSEPKSSDKTHTCPPCPAPEAEGAPSVFLFPPKPKDTLMISRTPEVTCVVVDVSHEDPEVKFNWYVDGVEVHNAKTKPREEQYNSTYRVVSVLTVLHQDWLNGKEYKCKVSNKALPSSIEKTISKAKGQPREPQVYTLPPSRDELTKNQVSLTCLVKGFYPSDIAVEWESNGQPENNYKTTPPVLDSDGSFFLYSKLTVDKSRWQQGNVFSCSVMHEALHNHYTQKSLSLSPGK
Consider B1, for which, in assay [1], the concentration for a half-maximal effect (EC50 (read off the curve)) is approximately 300 pM.

B2: B575701 (Fc fusion)
chain: LSCRKEQGKFYDHLLRDCISCASICGQHPKQCAYFCENKLRSPGMLQMAGQCSQNEYFDSLLHACIPCQLRCSSNTPPLTCQRYCNASVTNSVKGTNADKTHTCPPCPAPEAEGAPSVFLFPPKPKDTLMISRTPEVTCVVVDVSHEDPEVKFNWYVDGVEVHNAKTKPREEQYNSTYRVVSVLTVLHQDWLNGKEYKCKVSNKALPSSIEKTISKAKGQPREPQVYTLPPSRDELTKNQVSLTCLVKGFYPSDIAVEWESNGQPENNYKTTPPVLDSDGSFFLYSKLTVDKSRWQQGNVFSCSVMHEALHNHYTQKSLSLSPGK
notes: TACI-BCMA fusion protein; also called TACI-d2-BCMA-ECD-Fc
As for B2, the “EC50 relative to telitacicept” value in assay [2] is 0.5 fold. In addition, in assay [3], the EC50 was determined as 324 pM and the Emax was 2.31 nM (as printed). In assay [4], this molecule registered an EC50 of 205 pM and an Emax of 2.69.

B3: B575704 (Fc fusion)
chain: MLQMAGQCSQNEYFDSLLHACIPCQLRCSSNTPPLTCQRYCNASVTNSVKGTNASRVDQEERFPQGLWTGVAMRSCPEEQYWDPLLGTCMSCKTICNHQSQRTCAAFCRSLSCRKEQGKFYDHLLRDCISCASICGQHPKQCAYFCENKLRSPVNLPPELDKTHTCPPCPAPEAEGAPSVFLFPPKPKDTLMISRTPEVTCVVVDVSHEDPEVKFNWYVDGVEVHNAKTKPREEQYNSTYRVVSVLTVLHQDWLNGKEYKCKVSNKALPSSIEKTISKAKGQPREPQVYTLPPSRDELTKNQVSLTCLVKGFYPSDIAVEWESNGQPENNYKTTPPVLDSDGSFFLYSKLTVDKSRWQQGNVFSCSVMHEALHNHYTQKSLSLSPGK
notes: TACI-BCMA fusion protein; also called BCMA-ECD-TACI-T2-Fc
With B3, the “EC50 relative to telitacicept” value in assay [2] worked out at 0.25 fold. Further, in assay [3], the midpoint of the response, the EC50, lay at 187 pM and the Emax is 2.29 nM (as printed). In assay [4], this molecule came in with an EC50 of 189 pM and an Emax of 2.68.

B4: TACI-9-Fc (Fc fusion)
chain: SLSCRKEQGKFYDHLLRDCISCASICGQHPKQCAYFCENKLDKTHTCPPCPAPEAEGAPSVFLFPPKPKDTLMISRTPEVTCVVVDVSHEDPEVKFNWYVDGVEVHNAKTKPREEQYNSTYRVVSVLTVLHQDWLNGKEYKCKVSNKALPSSIEKTISKAKGQPREPQVYTLPPSRDELTKNQVSLTCLVKGFYPSDIAVEWESNGQPENNYKTTPPVLDSDGSFFLYSKLTVDKSRWQQGNVFSCSVMHEALHNHYTQKSLSLSPGK
notes: C-terminus of TACI-9 fused directly to the N-terminus of human IgG1 Fc; two identical polypeptide chains; expressed in 293E
Take B4: the values for the EC50 in assay [5] and in assay [6] were 490 pM and 418 pM, respectively. Also, the results for the IC50 in assay [7] and in assay [8] were 5020 pM and 2090 pM, respectively.
